Data set [1] in a line: Differential scanning fluorimetry (DSF) analysis. The format is physicochemical. The following applies: Table 9B. The procedure, abridged: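 Thermal melt with 5× final Sypro Orange: ramp 1° C/min from 30 to 95° C, reading each 60 s, derivative of fluorescence plotted by temperature. Luciferase variants were in 20 mM HEPES pH 7.5, 200 mM NaCl, 1 mM EDTA; other enzymes in 50 mM HEPES pH 7.5, 100 mM NaCl, 2 mM EDTA.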
(DSF heats the sample and reads unfolding from a dye or from intrinsic fluorescence.)

The nature of data set [2]: Kinetic analysis of thermostable variants with CS0280 (Table 10). The format is biochemical. The procedure: (§1) Experiments were also conducted to evaluate the activities (i.e. Vmax and Km) of the various thermostable luciferase variants of Ppe (SEQ ID NO: 1) described above.
(§2) Tables 10 and 11 include representative results of kinetic analysis of the thermostable variants with D/L luciferin, CS0333, and CS0280. […] MK0135 and MK0137 have amino acid substitutions that improve thermostability relative to MK0133 and MK0134, respectively, while retaining activity on the luciferin analogs CS0333 and CS0280.

Data set [3] is described as follows: Luminescence at 1 mM D/L-luciferin (Table 11). The format is biochemical. As to conditions: 1 mM substrate, 1 mM ATP.
Source text: as §2

The nature of data set [4]: Luminescence at 1 mM CS0280 (Table 11). The format is biochemical. The following applies: 1 mM substrate, 1 mM ATP.
Source text: as §2

Data set [5] in a line: Kinetic analysis of thermostable variants with D/L-luciferin (Table 10). The format is biochemical. The protocol: as §1, §2
Data set [6] can be described thus: Kinetic analysis of thermostable variants with D/L-luciferin (Tables 13, 14). The format is biochemical. As to conditions: 2 mM ATP.
Data set [7] in a line: Kinetic analysis of thermostable variants with CS0280 (Tables 13, 14). As to conditions: 2 mM ATP. The format is biochemical.
Data set [8] can be described thus: Luminescence at 1 mM CS0333 (Table 11). The format is biochemical. The following applies: 1 mM substrate, 1 mM ATP.
Source text: as §2

Data set [9] can be described thus: Kinetic analysis of thermostable variants with CS0333 (Table 10). The format is biochemical. The procedure:
as §1, §2

A short description of data set [10]: Kinetic analysis of thermostable variants with CS0333 (Tables 13, 14). The format is biochemical. As to conditions: 2 mM ATP.
A short description of data set [11]: E. coli lysate screen of epPCR/DNA shuffling variants with CS0280. The format is biochemical. As to conditions: Detection Reagent, 1 mM ATP, 500 μM substrate, 3 mins. The procedure:
(§3) These experiments included lysing E. coli cells expressing each luciferase enzyme variant in Detection Reagent containing 1 mM ATP+500 μM substrate. The cell lysate was incubated at room temperature for 3 mins and luminescence was read. The raw luminescence reading was normalized to the on-plate luminescence of ATG-2889, which was used as a control in this screen.

Data set [12] can be described thus: E. coli lysate screen of epPCR/DNA shuffling variants with CS0333. The format is biochemical. As to conditions: Detection Reagent, 1 mM ATP, 500 μM substrate, 3 mins. The protocol:
as §3

One may read the Km as the substrate concentration at which the rate is half of its maximum.

B1: MK0137: SEQ ID NO: 105; H244W+S193A+N228D+L305F+S306P+I109V+C38R+F55I+Y108F+A316W+Y339M+T342S+V348I (protein)
chain: MADKNILYGPEPFYPLEDGTAGEQMFDALSRYAAIPGRIALTNAHTKENVLYEEILKLSCRLAESFKKYGLKQNDTIAVCSENSLQFFLPVIASLYLGIIVAPVNDKFVERELIHSLGIVKPRIVFCSKNTFQKVLNVKSKLKSIETIIILDLNEDLGGYQCLNNFISQNSDSNLDVKKFKPYSFNRDDQVAAIMFSSGTTGLPKGVMLTHKNIVARFSIAKDPTFGDAINPTSAILTVIPFHWGFGMMTTLGYFTCGFRVVLMHTFEEKLFLQSLQDYKVESTLLVPTLMAFLAKSALVEKYDFPHLKEIASGGWPLSKEIGEMVKKRFKLNFVRQGMGLTEITSAVLITPKGDAKPGSTGKIVPLHAVKVVDPTTGKILGPNEPGELYFKGPMKMKGYYNNEEATKAIIDNDGWLRSGDIAYYDNDGHFYIVDRLKSLIKYKGYQVAPAEIEGILLQHPYIVDAGVTGIPDEAAGELPAAGVVVQTGKYLNEQIVQDYVASQVSTAKWLRGGVKFLDEIPKGSTGKIDRKVLRQMLEKHTNGHHHHHHHH
For B1, the “DSF Tm (° C.)” value in [1] was found to be 69 °C. Further, the Km came to 2.92 µM in data set [2] (BrightGlo Buffer); 18.9 µM in data set [2] (Detection Reagent Buffer); 36.8 nM in data set [5] (BrightGlo Buffer); 196 nM in data set [5] (Detection Reagent Buffer); 83.5 nM in data set [6] (BrightGlo Buffer); 306 nM in [6] (Detection Reagent Buffer). For the same molecule, the Km is 4.08 µM in [7] (BrightGlo Buffer); 535 µM in [7] (Detection Reagent Buffer); 7.17 µM in data set [9] (BrightGlo Buffer); 80.5 µM in [9] (Detection Reagent Buffer); 4.27 µM in data set [10] (BrightGlo Buffer); 18.8 µM in data set [10] (Detection Reagent Buffer). Also, the “Vmax (RLU)” value in data set [2] (BrightGlo Buffer) is listed as 2,255,088 RLU; in data set [2] (Detection Reagent Buffer) it was 109,120 RLU; in data set [5] (BrightGlo Buffer), 279,889 RLU; in [5] (Detection Reagent Buffer) it was 40,917 RLU; in data set [6] (BrightGlo Buffer), 253,978 RLU; in [6] (Detection Reagent Buffer) it was 29,013 RLU. Further, the “Vmax (RLU)” value in data set [7] (BrightGlo Buffer) was 825,876 RLU; in data set [7] (Detection Reagent Buffer), 88,972 RLU; in [9] (BrightGlo Buffer), 5,453,269 RLU; in data set [9] (Detection Reagent Buffer), 3,679,125 RLU; in data set [10] (BrightGlo Buffer), 3,236,246 RLU; in data set [10] (Detection Reagent Buffer) it was 668,831 RLU. The “Vmax (RLU) D/L-luciferin BrightGlo Buffer” value in [3] (BrightGlo Buffer) was 326,347 RLU. In addition, the “Vmax (RLU) D/L-luciferin Detection Reagent Buffer” value in data set [3] (Detection Reagent Buffer) was 48,315 RLU. Further, the “Vmax (RLU) CS0280 BrightGlo Buffer” value in data set [4] (BrightGlo Buffer) is listed as 1,931,470 RLU. Also, in data set [4] (Detection Reagent Buffer), the “Vmax (RLU) CS0280 Detection Reagent Buffer” value was 117,973 RLU. In addition, in data set [8] (BrightGlo Buffer), the “Vmax (RLU) CS0333 BrightGlo Buffer” value is on record as 3,882,620 RLU. Besides, the “Vmax (RLU) CS0333 Detection Reagent Buffer” value in data set [8] (Detection Reagent Buffer) is reported as 3,127,710 RLU.

B2: C4598F8: SEQ ID NO: 60; H244W+T344A+I396K+I109V+V262A+V287I+K309N (protein)
chain: MADKNILYGPEPFYPLEDGTAGEQMFDALSRYAAIPGCIALTNAHTKENVLYEEFLKLSCRLAESFKKYGLKQNDTIAVCSENSLQFFLPVIASLYLGIIVAPVNDKYVERELIHSLGIVKPRIVFCSKNTFQKVLNVKSKLKSIETIIILDLNEDLGGYQCLNNFISQNSDSNLDVKKFKPYSFNRDDQVASIMFSSGTTGLPKGVMLTHKNIVARFSIAKDPTFGNAINPTSAILTVIPFHWGFGMMTTLGYFTCGFRVALMHTFEEKLFLQSLQDYKVESTLLIPTLMAFLAKSALVEKYDLSHLNEIASGGAPLSKEIGEMVKKRFKLNFVRQGYGLTEATSAVLITPKGDAKPGSTGKIVPLHAVKVVDPTTGKILGPNEPGELYFKGPMKMKGYYNNEEATKAIIDNDGWLRSGDIAYYDNDGHFYIVDRLKSLIKYKGYQVAPAEIEGILLQHPYIVDAGVTGIPDEAAGELPAAGVVVQTGKYLNEQIVQDYVASQVSTAKWLRGGVKFLDEIPKGSTGKIDRKVLRQMLEKHTNGHHHHHHHH
As for B2, the “Normalized luminescence (Mutant RLU/ATG2889 RLU) with CS0280” value in [11] was 5.88. Besides, in data set [12], the “Normalized luminescence (Mutant RLU/ATG2889 RLU) with CS0333” value was 4.91.

B3: C4629G5: SEQ ID NO: 67; H244W+T344A+I396K+I236V (protein)
chain: MADKNILYGPEPFYPLEDGTAGEQMFDALSRYAAIPGCIALTNAHTKENVLYEEFLKLSCRLAESFKKYGLKQNDTIAVCSENSLQFFLPVIASLYLGIIVAPVNDKYIERELIHSLGIVKPRIVFCSKNTFQKVLNVKSKLKSIETIIILDLNEDLGGYQCLNNFISQNSDSNLDVKKFKPYSFNRDDQVASIMFSSGTTGLPKGVMLTHKNIVARFSIAKDPTFGNAINPTSAVLTVIPFHWGFGMMTTLGYFTCGFRVVLMHTFEEKLFLQSLQDYKVESTLLVPTLMAFLAKSALVEKYDLSHLKEIASGGAPLSKEIGEMVKKRFKLNFVRQGYGLTEATSAVLITPKGDAKPGSTGKIVPLHAVKVVDPTTGKILGPNEPGELYFKGPMKMKGYYNNEEATKAIIDNDGWLRSGDIAYYDNDGHFYIVDRLKSLIKYKGYQVAPAEIEGILLQHPYIVDAGVTGIPDEAAGELPAAGVVVQTGKYLNEQIVQDYVASQVSTAKWLRGGVKFLDEIPKGSTGKIDRKVLRQMLEKHTNGHHHHHHHH
For B3, the “Normalized luminescence (Mutant RLU/ATG2889 RLU) with CS0280” value in [11] is 5.06. Moreover, the “Normalized luminescence (Mutant RLU/ATG2889 RLU) with CS0333” value in data set [12] is given as 2.26.

B4: C4608E7: SEQ ID NO: 63; H244W+T344A+I396K+K121N+N228D+V287I (protein)
chain: MADKNILYGPEPFYPLEDGTAGEQMFDALSRYAAIPGCIALTNAHTKENVLYEEFLKLSCRLAESFKKYGLKQNDTIAVCSENSLQFFLPVIASLYLGIIVAPVNDKYIERELIHSLGIVNPRIVFCSKNTFQKVLNVKSKLKSIETIIILDLNEDLGGYQCLNNFISQNSDSNLDVKKFKPYSFNRDDQVASIMFSSGTTGLPKGVMLTHKNIVARFSIAKDPTFGDAINPTSAILTVIPFHWGFGMMTTLGYFTCGFRVVLMHTFEEKLFLQSLQDYKVESTLLIPTLMAFLAKSALVEKYDLSHLKEIASGGAPLSKEIGEMVKKRFKLNFVRQGYGLTEATSAVLITPKGDAKPGSTGKIVPLHAVKVVDPTTGKILGPNEPGELYFKGPMKMKGYYNNEEATKAIIDNDGWLRSGDIAYYDNDGHFYIVDRLKSLIKYKGYQVAPAEIEGILLQHPYIVDAGVTGIPDEAAGELPAAGVVVQTGKYLNEQIVQDYVASQVSTAKWLRGGVKFLDEIPKGSTGKIDRKVLRQMLEKHTNGHHHHHHHH
Turning to B4, the “Normalized luminescence (Mutant RLU/ATG2889 RLU) with CS0280” value in [11] came out at 5.26. Moreover, the “Normalized luminescence (Mutant RLU/ATG2889 RLU) with CS0333” value in data set [12] came to 6.86.

B5: C4601C8: SEQ ID NO: 61; H244W+T344A+I396K+S193P (protein)
chain: MADKNILYGPEPFYPLEDGTAGEQMFDALSRYAAIPGCIALTNAHTKENVLYEEFLKLSCRLAESFKKYGLKQNDTIAVCSENSLQFFLPVIASLYLGIIVAPVNDKYIERELIHSLGIVKPRIVFCSKNTFQKVLNVKSKLKSIETIIILDLNEDLGGYQCLNNFISQNSDSNLDVKKFKPYSFNRDDQVAPIMFSSGTTGLPKGVMLTHKNIVARFSIAKDPTFGNAINPTSAILTVIPFHWGFGMMTTLGYFTCGFRVVLMHTFEEKLFLQSLQDYKVESTLLVPTLMAFLAKSALVEKYDLSHLKEIASGGAPLSKEIGEMVKKRFKLNFVRQGYGLTEATSAVLITPKGDAKPGSTGKIVPLHAVKVVDPTTGKILGPNEPGELYFKGPMKMKGYYNNEEATKAIIDNDGWLRSGDIAYYDNDGHFYIVDRLKSLIKYKGYQVAPAEIEGILLQHPYIVDAGVTGIPDEAAGELPAAGVVVQTGKYLNEQIVQDYVASQVSTAKWLRGGVKFLDEIPKGSTGKIDRKVLRQMLEKHTNGHHHHHHHH
As for B5, the “Normalized luminescence (Mutant RLU/ATG2889 RLU) with CS0280” value in [11] came out at 4.53. Moreover, in data set [12], the “Normalized luminescence (Mutant RLU/ATG2889 RLU) with CS0333” value was determined as 3.32.

B6: C4584G5: SEQ ID NO: 57; H244W+T344A+I396K+K107Q+L305F (protein)
chain: MADKNILYGPEPFYPLEDGTAGEQMFDALSRYAAIPGCIALTNAHTKENVLYEEFLKLSCRLAESFKKYGLKQNDTIAVCSENSLQFFLPVIASLYLGIIVAPVNDQYIERELIHSLGIVKPRIVFCSKNTFQKVLNVKSKLKSIETIIILDLNEDLGGYQCLNNFISQNSDSNLDVKKFKPYSFNRDDQVASIMFSSGTTGLPKGVMLTHKNIVARFSIAKDPTFGNAINPTSAILTVIPFHWGFGMMTTLGYFTCGFRVVLMHTFEEKLFLQSLQDYKVESTLLVPTLMAFLAKSALVEKYDFSHLKEIASGGAPLSKEIGEMVKKRFKLNFVRQGYGLTEATSAVLITPKGDAKPGSTGKIVPLHAVKVVDPTTGKILGPNEPGELYFKGPMKMKGYYNNEEATKAIIDNDGWLRSGDIAYYDNDGHFYIVDRLKSLIKYKGYQVAPAEIEGILLQHPYIVDAGVTGIPDEAAGELPAAGVVVQTGKYLNEQIVQDYVASQVSTAKWLRGGVKFLDEIPKGSTGKIDRKVLRQMLEKHTNGHHHHHHHH
As to B6, the “Normalized luminescence (Mutant RLU/ATG2889 RLU) with CS0280” value in data set [11] came out at 4.39. Further, the “Normalized luminescence (Mutant RLU/ATG2889 RLU) with CS0333” value in data set [12] is 3.42.

Values taken from US12545899B2, “Luciferase enzymes for use with thermostable luciferins in bioluminescent assays” (Promega Corporation, priority 2018, dated 2026).
